The target of test [1] is T1, … variant with 9I exchanged by L (human).
T1 construct: Substitution scan peptide
T1 peptide: LDKNTSRTLYDPVHA
The test is described as follows: peptide microarray substitution scan, Ab5.5 at 1 µg/mL.

The target of test [2] is T2, wild type peptide LDKNTSRTIYDPVHA (SEQ ID NO:32) (human).
T2 construct: Printed on a peptide microarray; also called Homo sapiens Ryk(206-220)
T2 peptide: LDKNTSRTIYDPVHA
The test is described as above.

The target of test [3] is … variants with 10Y exchanged by other amino acids. Described as above.
Test [4] has as its target … variants with 11D exchanged by other amino acids. The test is described as above.
In test [5] the target is … variants with 13V replaced by other amino acids. The test is described as above.
Test [6] addresses … variants with 7R replaced by other amino acids. Described as above.
The target in test [7] is … variants with 8T exchanged by other amino acids. The test is described as above.
Test [8] concerns the target … variants with 12P exchanged by other amino acids. Described as above.
The target in test [9] is … variants with 13V replaced by other amino acids. The test is described as follows: peptide microarray substitution scan, Ab5.5_var1 at 100 µg/mL.
Test [10] concerns the target … variants with 7R replaced by other amino acids. The description is as above.
The target in test [11] is … variants with 8T exchanged by other amino acids. The description is as above.
Test [12] addresses … variants with 12P exchanged by other amino acids. The description is as above.
The next test has as its target T3, full length mouse RYK (mouse, UniProt Q01887 35-594).
T3 construct: Expressed from a plasmid (Macheda et al.) in HEK293, and the lysate was probed by Western blot; also called Mus musculus Ryk
The test is described as follows: Western blot of RIPA lysates (30 µg per lane) of transfected HEK293 cells, Ab5.5_Var1 at 1 µg/mL, anti-human secondary, LI-COR detection. (In general: A western blot detects proteins with antibodies after separation by electrophoresis.)

Test [13] addresses T4, peptides with the highly basic consensus motif TVLNFKRRKMCYKK (SEQ ID NO:30) (human).
T4 construct: Array spots were 15-mers sharing this motif; also called Homo sapiens Ryk(184-197)
T4 peptide: TVLNFKRRKMCYKK
The test can be described thus: PEPperMAP linear epitope mapping: microarray of 15-mer peptides (14 aa overlap) of human Ryk 134-227, antibody at 10 µg/mL, goat anti-human IgG (Fc) DyLight680.

The target of test [14] is T5, peptides with the highly basic consensus motif SSKNFTVLNFKRRK (SEQ ID NO:29) (human).
T5 construct: Array spots were 15-mers sharing this motif; also called Homo sapiens Ryk(179-192)
T5 peptide: SSKNFTVLNFKRRK
The description is as above.

For test [15], the target named is T6, peptides with the consensus motif TSRTIYDPV (SEQ ID NO:28) (human).
T6 construct: The array spots were adjacent 15-mers of human Ryk 134-227 sharing this motif; also called Homo sapiens Ryk(210-218)
T6 peptide: TSRTIYDPV
The description is as above.

In test [16] the target is T7, peptides with the highly basic consensus motif RRKMCYKKLEEVK (SEQ ID NO:31) (human).
T7 construct: Array spots were 15-mers sharing this motif; also called Homo sapiens Ryk(190-202)
T7 peptide: RRKMCYKKLEEVK
The description is as above.

A further test concerns the target full length human RYK (human, UniProt P34925 26-607). The test is described as follows: cell-based or functional assay.
Test [17] has as its target T1, … variant with 9I exchanged by L. The test can be described thus: peptide microarray substitution scan, Ab5.5_var1 at 100 µg/mL.
Test [18] has as its target T2, wild type peptide LDKNTSRTIYDPVHA (SEQ …). The test is described as above.
In test [19] the target is T8, single peptide NSSKNFTVLNFKRRK (SEQ ID NO:35) (human).
T8 construct: also called Homo sapiens Ryk(178-192)
T8 peptide: NSSKNFTVLNFKRRK
The test can be described thus: PEPperMAP linear epitope mapping: microarray of 15-mer peptides (14 aa overlap) of human Ryk 134-227, antibody at 100 µg/mL, goat anti-human IgG (Fc) DyLight680.

In test [20] the target is T6, peptides with the consensus motif …. Described as above.
The target of test [21] is T9, peptides with the basic consensus motif VLNFKRRKMCYKK (SEQ ID NO:36) (human).
T9 construct: Array spots were 15-mers sharing this motif; also called Homo sapiens Ryk(185-197)
T9 peptide: VLNFKRRKMCYKK
The description is as above.

Test [22] addresses T7, peptides with the highly basic …. The test is described as follows: PEPperMAP linear epitope mapping: microarray of 15-mer peptides (14 aa overlap) of human Ryk 134-227, goat anti-human IgG (Fc) DyLight680.
Test [23] has as its target T4, peptides with the highly basic …. The test is described as follows: PEPperMAP linear epitope mapping: microarray of 15-mer peptides (14 aa overlap) of human Ryk 134-227, antibody at 10 µg/mL, goat anti-human IgG (Fc) DyLight680.
Test [24] deals with T5, peptides with the highly basic …. Described as above.
The target in test [25] is T6, peptides with the consensus motif …. The test is described as above.
The target of test [26] is T7, peptides with the highly basic …. The description is as above.

Where two headings read alike, the source gives them in different places. Where only a bound is given, the exact number is not on record here.

B1: Ab5.5 (antibody, V domains shown)
VH: EVKLVESGGDLVQPGGSLKLSCAASGFTFSSYTMSWIRQTPEKRLEWVAYISNGGGGTYYPDTVKGRFTISRDNAKNTLYLQMNSLKSEDTAMYYCTRHGDNGDYWGHGSTLTVSS
VL: DIKMTQSPSSMYASLGERVTITCKASQDINSYLSWIQQKPGKSPKTLIYRANRLVDGVPSRFSGSGSGQDYSLTISSLEYEDMGIYYCLQYDEFPLTFGAGTKLELK
notes: Parental murine variable domains; also called Chimera antibody; Parental
Regarding B1, the binding result in test [1] and in test [2] was “binds” each time. In addition, the % lower spot intensity than the wild type peptide in [3] is greater than 83%; in test [4], greater than 83%; in test [5], greater than 58%; in [6], greater than 67%; in test [7], 27%; in [8] it was 33%.

B2: Ab5.5_var1 (antibody, V domains shown)
VH: EVQLVESGGGLVQPGGSLRLSCAASGFTFSSYTMSWIRQAPGKGLEWVAYISNGGGGTYYPDSVKGRFTISRDNAKNTLYLQMNSLRAEDTAVYYCTRHGDNGDYWGHGSLVTVSS
VL: DIQMTQSPSSLSASVGDRVTITCKASQDINSYLSWIQQKPGKAPKTLIYRANRLVDGVPSRFSGSGSGTDYTLTISSLQPEDFATYYCLQYDEFPLTFGAGTKVEIK
notes: Detected with anti-human IgG (Fc); also called variant 1; v1
With B2, the % lower spot intensity than the wild type peptide in [9] is greater than 62%; in test [10], greater than 70%; in [11] it was 7.5%; in [12], 35%. The binding result (with full length mouse RYK; in test [13]; in test [14]; in test [15]; in test [16]; in [17]) was “binds” throughout. Further, the binding result in test [18] was “binds”. Besides, in the test with full length human RYK, the “IC50 of inhibition of canonical Wnt signaling (luciferase reporter) in HEK 293 STF cells stimulated with 250 ng/mL human Wnt-3a” value stood at 484 µg/mL.

B3: Ab5.5_var10 (antibody, V domains shown)
VH: EVQLVESGGGLVQPGGSLRLSCAASGFTFSSYTMSWIRQAPGKGLEWAAYISTGGGGTYYVDSVKGRFTISRDNAKNSLYLQMNSLRAEDTAVYYCTRHGDNGDYWGHGSLVTVSS
VL: DIQMTQSPSSLSASVGDRATITCKASQDINSYLSWIQQKPGKAPKTLIYRANRLVDGVPSRFSGSGSGTDYTLTISSLQPEDFATYYCLQYDEFPLTFGGGTKVEIK
notes: Detected with anti-human IgG; also called variant 10; v10
Consider B3, for which the binding result in [19] is given as “binds”; in [20], “binds”; in test [21] it was “binds”; in test [22], “no binding (tested: 100 µg/mL)”.

B4: Ab5.5_var2 (antibody, V domains shown)
VH: EVQLVESGGGLVQPGGSLRLSCAASGFTFSSYTMSWIRQAPGKGLEWVAYISNGGGGTYYPDSVKGRFTISRDNAKNSLYLQMNSLRAEDTAVYYCTRHGDNGDYWGQGSLVTVSS
VL: DIQMTQSPSSLSASVGDRVTITCKASQDINSYLSWIQQKPGKAPKTLIYRANRLVDGVPSRFSGSGSGTDYTLTISSLQPEDFATYYCLQYDEFPLTFGAGTKVEIK
notes: Detected with anti-human IgG; also called Variant 2; variant 2
On to B4, for which the binding result in test [23], in [24], in test [25] and in test [26] was “binds” in each case.

The values are drawn from patent US20230416375A1 (VERSAPEUTICS, published 2023).
